How the values were obtained:
[1] = molecular target: T1, recombinant human GPC3 (full-length extracellular domain) (human, UniProt P51654 25-559); test: ELISA, GPC3 coated at 50 ng per well, anti-FLAG-HRP detection
T1 construct: extracellular domain; Bought protein coated on ELISA plates; also called human GPC3 protein
Experimental: The hexahistidine-tagged 1A1 Fab and 6A4 Fab were expressed in E. coli strain HB2151 and purified from the soluble fraction of periplasm by using the Ni-NTA resin. Then ELISA was performed by using standard protocols to measure binding affinity to recombinant human GPC3 (full-length extracellular domain). Briefly, the recombinant human GPC3 (ACROBiosystems) was coated on Corning EIA/RIA high-binding 96-well plates (Corning Inc.) at 50 ng per well overnight at 4° C. and blocked with 3% nonfat milk in PBS (pH7.4). Fivefold serially diluted antibodies were added and incubated at room temperature for 2 h. The plates were washed with PBS containing 0.05% Tween 20. Bound antibodies were detected by HRP-conjugated anti-FLAG tag antibody (Sino Biological). The assay was developed at room temperature with TMB substrate (Solarbio) and OD value was measured at 450 nm with a microplate reader.

[2] = molecular target: T1, recombinant human GPC3 (full-length …); test: ELISA, GPC3 coated, biotinylated antibody, streptavidin-HRP detection
Experimental: (§1) ELISA was performed according to standard protocols, to determine binding affinity of anti-GPC3 1A1 mAb to recombinant GPC3 from human, cynomolgus, and mouse and anti-GPC3 6A4 mAb to recombinant human GPC3. Briefly, recombinant GPC3 (AcroBiosystems) was coated on Corning EIA/RIA high-binding 96-well plates (Corning Inc.) at 50 ng per well overnight at 4° C. and blocked with 3% nonfat milk in PBS (pH7.4). Fivefold serially diluted biotinylated antibodies were added and incubated at room temperature for 2 h. The plates were washed with PBS containing 0.05% Tween 20. Bound antibodies were detected by HRP-conjugated streptavidin (Sino Biological). The assay was developed at room temperature with TMB substrate (Solarbio) and monitored at 450 nm with a microplate reader. The half-maximal binding (EC₅₀) was calculated by fitting the data to the Langmuir adsorption isotherm.

[3] = molecular target: T2, recombinant mouse GPC3 (mouse, UniProt Q8CFZ4 25-558, limits assumed); test: as above
T2 construct: Bought protein; also called mouse GPC3 protein
Experimental: as §1

[4] = molecular target: T3, recombinant cynomolgus GPC3 (cynomolgus, UniProt A0A2K5VK50 24-558); test: as above
T3 construct: Bought protein; also called cynomolgus GPC3 protein
Experimental: as §1

T2 sequence (Q8CFZ4 25-558 limits assumed): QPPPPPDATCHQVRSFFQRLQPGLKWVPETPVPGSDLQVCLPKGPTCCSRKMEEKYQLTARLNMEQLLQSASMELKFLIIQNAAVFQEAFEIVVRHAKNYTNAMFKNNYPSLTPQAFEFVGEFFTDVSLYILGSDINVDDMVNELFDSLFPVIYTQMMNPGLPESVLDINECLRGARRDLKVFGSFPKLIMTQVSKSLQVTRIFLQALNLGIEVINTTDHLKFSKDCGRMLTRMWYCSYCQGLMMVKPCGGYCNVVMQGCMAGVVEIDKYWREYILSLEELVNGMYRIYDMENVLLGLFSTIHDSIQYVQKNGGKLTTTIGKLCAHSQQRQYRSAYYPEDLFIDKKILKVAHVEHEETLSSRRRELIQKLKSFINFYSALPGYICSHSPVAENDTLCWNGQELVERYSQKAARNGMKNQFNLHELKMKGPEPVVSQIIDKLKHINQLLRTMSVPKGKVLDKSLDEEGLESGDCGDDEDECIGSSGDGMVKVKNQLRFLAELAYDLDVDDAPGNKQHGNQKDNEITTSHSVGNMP

Row | Binder | EC50 [1] [nM] | EC50 [2] [nM] | EC50 [3] [nM] | EC50 [4] [nM]
1 | 6A4 Fab (Fab, V domains shown, Human Fab from a phage library, kappa light chain, hexahistidine-tagged, made in E. coli HB2151, detected with anti-FLAG antibody; also called Fab clone 6A4) VH: EVQLVQSGAEVKKPGASVKVSCKASGYTFTSYAMHWVRQAPGQRLEWMGWINAGNGNTKYSQKFQGRVTITRDTSTSTAYMELRSLRSDDTAVYYCARDPSHWGQGTLVTVSS VL: not shown | ~234 |  |  | 
2 | anti-GPC3 6A4 mAb (antibody, V domains shown, Intact human IgG1 kappa) VH: EVQLVQSGAEVKKPGASVKVSCKASGYTFTSYAMHWVRQAPGQRLEWMGWINAGNGNTKYSQKFQGRVTITRDTSTSTAYMELRSLRSDDTAVYYCARDPSHWGQGTLVTVSS VL: not shown |  | 4.5 |  | 
3 | 1A1 Fab (Fab, V domains shown, Human Fab from a phage library, kappa light chain, hexahistidine-tagged, made in E. coli HB2151, detected with anti-FLAG antibody; also called Fab clone 1A1; anti-GPC3 1A1 Fab) VH: EVQLVQSGAEVKKPGASVKVSCKASGYTFTSYGISWVRQAPGQGLEWMGWISAYNGNTNYAQKLQGRVTMTTDTSTSTAYMELRSLRSDDTAVYYCARAGTPTQILRYFDWLSQPFDYWGQGTLVTVSS VL: EIVLTQSPLSLPVTLGQPASISCRSSQSLVYSDGNTYLNWFHQRPGQSPRRLIYKVSNRDSGVPERFSGSGSGTDFTLKISRVEAEDVGVYYCMQSTHWPLTFGGGTKVEIK | ~190 |  |  | 
4 | anti-GPC3 1A1 mAb (antibody, human IgG1, kappa, V domains shown, Intact human IgG1 kappa, about 150 kDa on non-reducing SDS-PAGE) VH: EVQLVQSGAEVKKPGASVKVSCKASGYTFTSYGISWVRQAPGQGLEWMGWISAYNGNTNYAQKLQGRVTMTTDTSTSTAYMELRSLRSDDTAVYYCARAGTPTQILRYFDWLSQPFDYWGQGTLVTVSS VL: EIVLTQSPLSLPVTLGQPASISCRSSQSLVYSDGNTYLNWFHQRPGQSPRRLIYKVSNRDSGVPERFSGSGSGTDFTLKISRVEAEDVGVYYCMQSTHWPLTFGGGTKVEIKR |  | 0.6 | 1.12 | 0.58

— US20240368303A1 (ZHEJIANG SHIMAI PHARMACEUTICAL, published 2024)
